{"source": "patent US20090175872A1", "about": "“Treatment of Conditions Involving Demyelination” (BIOGEN Idec MA Inc., priority 2005, published 2009)", "key": {"[1]": {"tested_on": "spinal cord injury in Long Evans rats", "assay": "Spinal cord injury (dorsal hemisection), intrathecal mini-osmotic pump", "type": "in vivo, rat", "procedure": "Spinal cord injury was induced in adult female Long Evans rats (190-210 g; Charles River). A dorsal hemisection was performed at T6/T7, completely interrupting the main dorsomedial and the minor dorsolateral corticospinal tract (CST) components. The cord was sterotaxically transected at a depth of 1.8 mm from the surface using a microscalpel. […] Postoperative care comprised analgesia (Buprenorphine/Buprenex, Reckitt Benckiset Healthcare Ltd., 0.05 mg/kg subcutaneously) every 8-12 hours for 3 days and antibiotic treatment (ampicillin, Bristol Myers Squibb, 100 mg/kg subcutaneously twice daily) for 7 days after surgery. Bladders were expressed manually twice a day for the duration of the study (4 weeks) or until return of function. On completion of the study, rats were anesthetized and trans-cardially perfused with heparinized saline followed by 4% paraformaldehyde (PFA). The spinal cords were removed, embedded in paraffin, and 10 μm sections were cut from for histological analysis.\nTo quantify apoptotic cell death after SCI, animals were euthanized 3 or 7 days after SCI and stained using anti-activated-Caspase-3 antibody (Cell Signaling Technologies) and TUNEL staining (Promega). The sections were also stained with anti-NeuN antibody (Chemicon) and anti-CC1 antibody (Calbiochem) to identify neurons and oligodendrocytes, respectively."}, "[2]": {"tested_on": "co-cultures of dorsal root ganglion (DRG) neurons and oligodendrocytes", "assay": "Myelination in co-cultures of DRG neurons and oligodendrocytes", "type": "cell-based, rat", "experimental": "The role of Sp35 in myelination was examined in vitro by treating co-cultures of dorsal root ganglion (DRG) neurons and oligodendrocytes with Sp35-Fc and testing for myelination by immunohistochemistry and electron microscopy. For these studies, it was necessary to first generate primary cultures of DRG neurons and of oligodendrocytes.\nFemale Long Evans rat E14-E17 embryonic dorsal root ganglia were cultured as described by Plant et al., J. Neurosci. 22:6083-91 (2002). Dissected DRGs were plated on poly-L-lysine-coated cover slips (100 μg/ml) for 2 weeks in the presence of fluorodeoxyuridine for days 2-6 and days 8-11 in NLA medium containing 1×B27, 100 ng/ml NGF (Invitrogen).\nA2B5^+ oligodendrocytes were prepared as described in Example 1, and were harvested by trypsinization.\nFor coculture studies, A2B5^+ oligodendrocytes were added to DRG neuron drop cultures in the presence or absence of 10 μg/ml Sp35-Fc. The culture medium (Neurobasal medium supplemented with B27 and 100 ng/ml NGF) was changed, and fresh Sp35-Fc was added to the cells every 3 d. To identify changes in myelination, 2-week-old cultures were stained by immunohistochemical staining (“IHC”) for neurofilaments with anti-βIII-tubulin antibody to identify axons, or anti-MBP antibody to identify oligodendrocytes., and 4-week-old cultures were subjected to SDS-PAGE followed by western blot analyses to quantify the MBP. In selected examples, cells were fixed for electron microscopy studies by adding 2.5% gluteraldehyde directly onto the cover slips. Myelinated axons in the 2-week-old cultures were quantified by counting the number of myelinated internode bundles that were derived from single MBP^+ oligodendrocytes. Samples were analyzed in duplicate. Error bars denote individual determinations. P values in all studies were determined using a one-way analysis of variance. […]\nWe performed experiments to address the relative contributions to the myelination process of Sp35 in DRG neurons as compared to oligodendrocytes. We infected DRG neurons, oligodendrocytes and co-cultures (prepared as described in Example 5) with the FL-Sp35 and DN-Sp35 lentiviral vectors described in Example 1 and performed immunohistochemical straining for myelinated MBP^+ cells after two weeks. A 2-fold increase in MBP levels in co-cultures where both cells express DN-Sp35 and a 2-fold decrease in MBP levels in co-cultures where both cells express FL-Sp35 was observed (FIG. 10G)."}, "[3]": {"tested_on": "differentiated PC12 cells", "assay": "Apoptotic cell death in differentiated PC12 cells after NGF withdrawal (cell death ELISA / TUNEL)", "type": "cell-based"}, "Caspase-3": {"tested_on": "Caspase-3", "assay": "Caspase-3 activation in differentiated PC12 cells after NGF withdrawal (Caspase 3/7 Glo)", "type": "cell-based", "conditions": "18 hours after removal of NGF", "experimental": "PC 12 cells (Neuroscreen) were differentiated in RPMI-1640 medium supplemented with 5% fetal bovine serum, 10% horse serum, 2 mM glutamine, 100 U/ml penicillin and […] streptomycin containing 200 ng/ml NGF for 7 days. For experiments, the culture media was replaced with NGF-free culture media containing Sp35-Fc, human IgG as a negative control (0.1-10 μM), or zVAD as a positive control (0.1 μM). 18 hours after NGF withdrawal, activated Caspase-3 was quantified using the Caspase 3/7 Glo kit (Promega) according to the manufacturer's instructions. 42 hours after NGF withdrawal, apoptotic cell death was quantified using a cell death detection ELISA kit (Roche) according to the manufacturer's instructions."}}, "data": [{"molecule": "Sp35-Fc: extra-cellular portion of human Sp35 (residues 1-532) fused to the hinge and Fc region of human IgG1 (protein, left off: a dimerising Fc or GST, extra-cellular portion of human Sp35 (residues 1-532) fused to the hinge and Fc region of human IgG1) TGCPPRCECSAQDRAVLCHRKRFVAVPEGIPTETRLLDLGKNRIKTLNQDEFASFPHLEELELNENIVSAVEPGAFNNLFNLRTLGLRSNRLKLIPLGVFTGLSNLTKLDISENKIVILLDYMFQDLYNLKSLEVGDNDLVYISHRAFSGLNSLEQLTLEKCNLTSIPTEALSHLHGLIVLRLRHLNINAIRDYSFKRLYRLKVLEISHWPYLDTMTPNCLYGLNLTSLSITHCNLTAVPYLAVRHLVYLRFLNLSYNPISTIEGSMLHELLRLQEIQLVGGQLAVVEPYAFRGLNYLRVLNVSGNQLTTLEESVFHSVGNLETLILDSNPLACDCRLLWVFRRRWRLNFNRQQPTCATPEFVQGKEFKDFPDVLLPNYFTCRRARIRDRKAQQVFVDEGHTVQFVCRADGDPPPAILWLSPRKHLVSAKSNGRLTVFPDGTLEVRYAQVQDNGTYLCIAANAGGNDSMPAHLHVRSYSPDWPHQPNKTFAFISNQPGE", "values": [{"measurement": "number of activated-Caspase-3-positive neurons and oligodendrocytes versus controls", "setting": "[1]; 3 days after SCI, 0.25 μl/h of 25 μM intrathecal", "value": "significantly smaller"}, {"measurement": "neuron and oligodendrocyte survival in tissue surrounding the lesion site versus controls", "setting": "[1]; four weeks after SCI, anti-βIII-tubulin and anti-O4 staining", "value": "more neurons and oligodendrocytes survived"}, {"measurement": "internodes and nodes of Ranvier by electron microscopy", "setting": "[2]; 4-week co-cultures, FIG. 10C", "value": "Multiple wellformed internodes were observed"}, {"measurement": "expression of MBP (western blot)", "setting": "[2]; 4-week-old treated co-cultures, anti-MBP antibody", "value": "increased"}, {"measurement": "effect on myelination when both cell types overexpress DN-Sp35", "setting": "[2]; exogenously added", "value": "slight effects"}, {"measurement": "effect on myelination when either cell type overexpresses DN-Sp35 alone", "setting": "[2]; exogenously added", "value": "further enhanced myelination"}, {"measurement": "effect on inhibition of myelination by overexpression of FL-Sp35", "setting": "[2]; exogenously added, FL-Sp35 in either or both cell types", "value": "reversed the inhibition of myelination"}, {"measurement": "axonal myelination (MBP+ myelinated axons)", "setting": "[2]; treatment for 2 weeks, dose-dependent, FIG. 10A", "value": "robust axonal myelination"}, {"measurement": "cells undergoing apoptosis (TUNEL assay)", "setting": "[3]; 18 hours after NGF withdrawal, versus control, FIG. 13 legend", "value": "fewer cells undergoing apoptosis"}, {"measurement": "cell death (TUNEL ELISA)", "setting": "[3]; 42 hours after withdrawal of NGF, FIG. 13", "value": "significantly reduced cell death"}, {"measurement": "Caspase-3 activation", "setting": "Caspase-3; 0.1 μM", "value": "reduced Caspase-3 activation"}, {"measurement": "Caspase-3 activation compared with zVAD (0.1 μM)", "setting": "Caspase-3; 1 or 10 μM, dose-dependent, FIG. 14", "value": "as effective as a neuroprotective dose of the caspase inhibitor zVAD"}]}]}
